Results on 6 proteins are retold here after article PMC4960622, “Crystal structures of RidA, an important enzyme for the prevention of toxic side products” (Scientific Reports, 2016).

Data set [1] concerns the molecule itself. The data set can be described thus: SEC; 0.5 mg of RidA WT and mutants loaded separately onto a Superdex-75 size-exclusion column; protein standards as size reference. A general note: SEC sorts molecules by how far they enter the pores of the column.
Data set [2] deals with the molecule itself. The experiment in a line: crystal structure; apo form; space group H3, one monomer per asymmetric unit, trimer by the crystallographic 3-fold axis; sitting drop, 18% PEG 3350, 0.1 M MES pH 6.0, 25 °C.

B1: Arabidopsis thaliana RidA, construct starting from S68 (AtRidA-S68), wild type (enzyme, UniProt Q94JQ4 68-187, looked up)
chain: STEKAPAALGPYSQAIKANNLVFLSGVLGLIPETGKFVSESVEDQTEQVLKNMGEILKASGADYSSVVKTTIMLADLADFKTVNEIYAKYFPAPSPARSTYQVAALPLNAKIEIECIATL
notes: Reactive Intermediate Deaminase A (RidA), Arabidopsis thaliana, GenBank AY060547.1, residues S68-L187 (without the predicted chloroplast transit peptide); Residues S80-L187 are resolved in the crystal structures; also called RidA WT; apo-AtRidA; source: E. coli BL21 (DE3), purified (Ni-NTA, PreScission cleavage, Histrap); not shown: His6, N-terminal, cleaved
B1: the results for the “stoichiometry N” value in data set [1] and in data set [2] were roughly 3 and 3, respectively.

B2: AtRidA-S68 E182A (enzyme, Arabidopsis thaliana, UniProt Q94JQ4 68-187, looked up)
chain: STEKAPAALGPYSQAIKANNLVFLSGVLGLIPETGKFVSESVEDQTEQVLKNMGEILKASGADYSSVVKTTIMLADLADFKTVNEIYAKYFPAPSPARSTYQVAALPLNAKIEIACIATL
notes: Reactive Intermediate Deaminase A (RidA), Arabidopsis thaliana, GenBank AY060547.1, residues S68-L187, made by QuikChange on the RidA-S68/pET28a(+) plasmid; The purification of the mutants is not described separately; probably as for the wild type (tag cleaved); also called RidA-E182A; source: E. coli BL21 (DE3), purified
As for B2, the binding result in data set [1] was “binds”.

B3: AtRidA-S68 S80A (enzyme, Arabidopsis thaliana, UniProt Q94JQ4 68-187, looked up)
chain: STEKAPAALGPYAQAIKANNLVFLSGVLGLIPETGKFVSESVEDQTEQVLKNMGEILKASGADYSSVVKTTIMLADLADFKTVNEIYAKYFPAPSPARSTYQVAALPLNAKIEIECIATL
notes: Reactive Intermediate Deaminase A (RidA), Arabidopsis thaliana, GenBank AY060547.1, residues S68-L187, made by QuikChange on the RidA-S68/pET28a(+) plasmid; The purification of the mutants is not described separately; probably as for the wild type (tag cleaved); also called RidA-S80A; source: E. coli BL21 (DE3), purified
On to B3, for which, in data set [1], the binding result is “binds”.

B4: AtRidA-S68 S92A (enzyme, Arabidopsis thaliana, UniProt Q94JQ4 68-187, looked up)
chain: STEKAPAALGPYSQAIKANNLVFLAGVLGLIPETGKFVSESVEDQTEQVLKNMGEILKASGADYSSVVKTTIMLADLADFKTVNEIYAKYFPAPSPARSTYQVAALPLNAKIEIECIATL
notes: Reactive Intermediate Deaminase A (RidA), Arabidopsis thaliana, GenBank AY060547.1, residues S68-L187, made by QuikChange on the RidA-S68/pET28a(+) plasmid; The purification of the mutants is not described separately; probably as for the wild type (tag cleaved); also called RidA-S92A; source: E. coli BL21 (DE3), purified
On to B4, for which the binding result in data set [1] is “binds”.

B5: AtRidA-S68 K136R (enzyme, Arabidopsis thaliana, UniProt Q94JQ4 68-187, looked up)
chain: STEKAPAALGPYSQAIKANNLVFLSGVLGLIPETGKFVSESVEDQTEQVLKNMGEILKASGADYSSVVRTTIMLADLADFKTVNEIYAKYFPAPSPARSTYQVAALPLNAKIEIECIATL
notes: Reactive Intermediate Deaminase A (RidA), Arabidopsis thaliana, GenBank AY060547.1, residues S68-L187, made by QuikChange on the RidA-S68/pET28a(+) plasmid; The purification of the mutants is not described separately; probably as for the wild type (tag cleaved); also called RidA-K136R; source: E. coli BL21 (DE3), purified
Consider B5, for which the binding result in data set [1] is reported as “binds”.

B6: AtRidA-S68 S166A (enzyme, Arabidopsis thaliana, UniProt Q94JQ4 68-187, looked up)
chain: STEKAPAALGPYSQAIKANNLVFLSGVLGLIPETGKFVSESVEDQTEQVLKNMGEILKASGADYSSVVKTTIMLADLADFKTVNEIYAKYFPAPSPARATYQVAALPLNAKIEIECIATL
notes: Reactive Intermediate Deaminase A (RidA), Arabidopsis thaliana, GenBank AY060547.1, residues S68-L187, made by QuikChange on the RidA-S68/pET28a(+) plasmid; The purification of the mutants is not described separately; probably as for the wild type (tag cleaved); also called RidA-S166A; source: E. coli BL21 (DE3), purified
Regarding B6, the binding result in data set [1] is “binds”.
